Experimental data reported in the supplement of paper PMC10724198.
± gives the standard deviation of the averaged measurements.
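Note: PSI is a weighted mean of sequencing reads over stability bins, variants kept only with over 10 reads, mCherry proximal and sfGFP distal, peptide attached via GGGS linker.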

The sequences below were run on Saccharomyces cerevisiae (assay: protein stability index of tFT-peptide fusion (C-terminal peptide) (PSI (0-1 scale)); higher = more stable (slower turnover)). Conditions: genetic background: das1 deletion; temperature: 30 C.
Procedure: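 MPS profiling in S. cerevisiae of the tFT-X12 degron library: putative degron peptides plus stable controls, 12 aa, fused to the C-terminus of a sfGFP-mCherry timer. Cells are FACS-sorted into 8 mCherry/sfGFP bins and deep-sequenced. PSI runs from 0 (unstable) to 1 (stable). Backgrounds are wild type, das1Δ and doa10Δ at 30 °C, and wild type, das1Δ, cdc34-1 and cdc53-1 at 37 °C; 2-3 technical replicates each.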
For ISVSVVFFVLRF, the protein stability index was 0.265 ± 0.041. IYPPVSVTNLLV showed a protein stability index of 0.646 ± 0.036. With KAEKNSKKTSTE the protein stability index was 0.658 ± 0.064. KALSSSYFGTRL showed a protein stability index of 0.648 ± 0.014. KCEKGLYCCIAF gave a protein stability index of 0.518 ± 0.031. Sequence KEKGVTKIRISS has a protein stability index of 0.632 ± 0.024. For KEKKKTKHNKIG, the protein stability index was 0.631 ± 0.014. KIVNNTKKNKCH gave a protein stability index of 0.652 ± 0.039. Work on KLALVYLLIRGL yielded a protein stability index of 0.366 ± 0.031. KLLGVLFVLFPG gave a protein stability index of 0.367 ± 0.031. Work on KLRIVYAKVVCS yielded a protein stability index of 0.511 ± 0.029. KSEKTYTYQVIQ showed a protein stability index of 0.622 ± 0.023. For KVALWRRGVLAA, the protein stability index was 0.257 ± 0.037. Sequence LCGYVGVVVCLV has a protein stability index of 0.243 ± 0.029. LCIRHFRLLELL showed a protein stability index of 0.642 ± 0.033. LCSYSTIPLRLY gave a protein stability index of 0.614 ± 0.019. LCWASLLIVYLP was tested, and the protein stability index was 0.311 ± 0.03. For LEYCLATYLSAC, the protein stability index was 0.25 ± 0.035. In the case of LFFSFLFLATRC, the protein stability index is reported as 0.254 ± 0.045. For LFFVCSGVVFSF, the protein stability index was 0.407 ± 0.03. Sequence LFGFLCVVMCCG has a protein stability index of 0.44 ± 0.02. With LFLFFFLPPLLF the protein stability index was 0.373 ± 0.025. LFLSFLLLYFRP gave a protein stability index of 0.311 ± 0.037. In the case of LFMRGEDEMFSV, the protein stability index is reported as 0.658 ± 0.01. Work on LFPLFTLIFVHL yielded a protein stability index of 0.265 ± 0.023. LFTRSIRNLKSL gave a protein stability index of 0.664 ± 0.0086. LFVFVISSSSFP was tested, and the protein stability index was 0.321 ± 0.025. For LFWCCVGLSVWR, the protein stability index was 0.318 ± 0.022. LFWPPCYLFFCL showed a protein stability index of 0.473 ± 0.039. Sequence LFWTLSKYLIIC has a protein stability index of 0.34 ± 0.04. Work on LGFFIFSFLILK yielded a protein stability index of 0.189 ± 0.031. Work on LGFHFFFTLIFF yielded a protein stability index of 0.279 ± 0.04. LGLLIFQWARVL gave a protein stability index of 0.405 ± 0.026. LGVVVGGVRGVG showed a protein stability index of 0.461 ± 0.012. Sequence LHRLRFTLVQVS has a protein stability index of 0.228 ± 0.032. LIAPSACNLFLF gave a protein stability index of 0.682 ± 0.015. In the case of LIRDLLYMAVLV, the protein stability index is reported as 0.295 ± 0.019. In the case of LISRLVLVFVIP, the protein stability index is reported as 0.287 ± 0.032. With LIVCVKAITIVS the protein stability index was 0.0357 ± 0.0096. LKCFLVLTFWFS gave a protein stability index of 0.222 ± 0.028. For LLHFVLYFLSCT, the protein stability index was 0.442 ± 0.03. For LLHQSVHSHIPP, the protein stability index was 0.638 ± 0.022. LLILSLLVLSSR gave a protein stability index of 0.241 ± 0.021. LLLCVVLVSVFG gave a protein stability index of 0.122 ± 0.025. For LLLFSFAALANF, the protein stability index was 0.398 ± 0.022. LLLFTPFYLLLR was tested, and the protein stability index was 0.218 ± 0.021. LLLPVFRFFFVN was tested, and the protein stability index was 0.554 ± 0.026. For LLRFFPCFLGVN, the protein stability index was 0.657 ± 0.043. Work on LLTAARAQLFAV yielded a protein stability index of 0.578 ± 0.016. With LLVSVVFVSRFF the protein stability index was 0.272 ± 0.038. For LLWALGLVLVEG, the protein stability index was 0.217 ± 0.022. For LNLACCWFVRCR, the protein stability index was 0.253 ± 0.035. LNSSVLRLRFFV was tested, and the protein stability index was 0.607 ± 0.037. For LPLCGLLLFLFF, the protein stability index was 0.433 ± 0.024. LPLQPPPPVCLP gave a protein stability index of 0.629 ± 0.024. LPPFGLFLFVFI showed a protein stability index of 0.31 ± 0.044. In the case of LPPSTFLLHFLL, the protein stability index is reported as 0.656 ± 0.013. In the case of LPTGLKTFLIAF, the protein stability index is reported as 0.414 ± 0.025. LPVPARPFPPSS gave a protein stability index of 0.684 ± 0.024. For LQSYVSRLVRLS, the protein stability index was 0.653 ± 0.041. Work on LRFFLPFLLSLP yielded a protein stability index of 0.55 ± 0.036. LRFSLLRVGWLC was tested, and the protein stability index was 0.58 ± 0.0099. Sequence LRGIVSVWILRA has a protein stability index of 0.441 ± 0.017. LRLLSLIPPLSC showed a protein stability index of 0.381 ± 0.039. LRSPCALVLLLI gave a protein stability index of 0.376 ± 0.029. LSAVISLRIQLS was tested, and the protein stability index was 0.518 ± 0.032. Work on LSFFICSFFFVL yielded a protein stability index of 0.456 ± 0.03. LSFLSLIFSICY showed a protein stability index of 0.356 ± 0.021. LSGDIPWSFVPV showed a protein stability index of 0.654 ± 0.011. For LSIGCRCLWGWF, the protein stability index was 0.631 ± 0.013. LSLCPVHRLLVL was tested, and the protein stability index was 0.481 ± 0.025. Work on LSLSPRLPRLVA yielded a protein stability index of 0.537 ± 0.014. In the case of LSRFGSTCPSGL, the protein stability index is reported as 0.642 ± 0.011. LSRHLILFIVIR gave a protein stability index of 0.172 ± 0.014. LSVYFSLSLCVS showed a protein stability index of 0.384 ± 0.025. With LTCTSTPMACRV the protein stability index was 0.443 ± 0.026. With LVCLPVGFFLMW the protein stability index was 0.47 ± 0.034. For LVCLVFVRSSLV, the protein stability index was 0.25 ± 0.024.

Same assay, conditions: genetic background: das1 deletion; temperature: 37 C
Work on ISVSVVFFVLRF yielded a protein stability index of 0.429 ± 0.015. IYPPVSVTNLLV was tested, and the protein stability index was 0.723 ± 0.014. For KAEKNSKKTSTE, the protein stability index was 0.68229 ± 0.0003. For KALSSSYFGTRL, the protein stability index was 0.743 ± 0.0082. In the case of KCEKGLYCCIAF, the protein stability index is reported as 0.664 ± 0.0099. In the case of KEKGVTKIRISS, the protein stability index is reported as 0.7071 ± 0.0024. KEKKKTKHNKIG was tested, and the protein stability index was 0.742 ± 0.011. Work on KIVNNTKKNKCH yielded a protein stability index of 0.738 ± 0.012. For KLALVYLLIRGL, the protein stability index was 0.5681 ± 0.00085. KLLGVLFVLFPG was tested, and the protein stability index was 0.569 ± 0.01. In the case of KLRIVYAKVVCS, the protein stability index is reported as 0.613 ± 0.0069. With KSEKTYTYQVIQ the protein stability index was 0.7159 ± 0.0055. With KVALWRRGVLAA the protein stability index was 0.476 ± 0.011. In the case of LCGYVGVVVCLV, the protein stability index is reported as 0.433 ± 0.0061. Sequence LCIRHFRLLELL has a protein stability index of 0.728 ± 0.041. Sequence LCSYSTIPLRLY has a protein stability index of 0.695 ± 0.022. Work on LCWASLLIVYLP yielded a protein stability index of 0.50382 ± 0.0004. Work on LEYCLATYLSAC yielded a protein stability index of 0.43854 ± 0.00041. In the case of LFFSFLFLATRC, the protein stability index is reported as 0.39184 ± 0.00039. LFFVCSGVVFSF gave a protein stability index of 0.5829 ± 0.0055. In the case of LFGFLCVVMCCG, the protein stability index is reported as 0.511 ± 0.03. With LFLFFFLPPLLF the protein stability index was 0.484 ± 0.021. Work on LFLSFLLLYFRP yielded a protein stability index of 0.4223 ± 0.0015. Sequence LFMRGEDEMFSV has a protein stability index of 0.7826 ± 0.0013. LFPLFTLIFVHL gave a protein stability index of 0.4169 ± 0.0011. Sequence LFTRSIRNLKSL has a protein stability index of 0.738 ± 0.02. For LFVFVISSSSFP, the protein stability index was 0.553 ± 0.0059. LFWCCVGLSVWR showed a protein stability index of 0.5026 ± 0.0031. LFWPPCYLFFCL was tested, and the protein stability index was 0.677 ± 0.045. Work on LFWTLSKYLIIC yielded a protein stability index of 0.491 ± 0.011. Sequence LGFFIFSFLILK has a protein stability index of 0.235 ± 0.011. LGFHFFFTLIFF showed a protein stability index of 0.4 ± 0.031. Work on LGLLIFQWARVL yielded a protein stability index of 0.553 ± 0.0056. In the case of LGVVVGGVRGVG, the protein stability index is reported as 0.505 ± 0.0054. LHRLRFTLVQVS was tested, and the protein stability index was 0.32664 ± 0.00013. With LIAPSACNLFLF the protein stability index was 0.7584 ± 0.0066. In the case of LIRDLLYMAVLV, the protein stability index is reported as 0.357 ± 0.018. LISRLVLVFVIP gave a protein stability index of 0.529 ± 0.0056. In the case of LIVCVKAITIVS, the protein stability index is reported as 0.0917 ± 0.019. LKCFLVLTFWFS showed a protein stability index of 0.367 ± 0.018. Work on LLHFVLYFLSCT yielded a protein stability index of 0.5554 ± 0.0051. Work on LLHQSVHSHIPP yielded a protein stability index of 0.733 ± 0.021. LLILSLLVLSSR was tested, and the protein stability index was 0.42 ± 0.0046. Sequence LLLCVVLVSVFG has a protein stability index of 0.174 ± 0.02. Sequence LLLFSFAALANF has a protein stability index of 0.5592 ± 0.0013. LLLFTPFYLLLR showed a protein stability index of 0.27 ± 0.0065. LLLPVFRFFFVN gave a protein stability index of 0.672 ± 0.021. Sequence LLRFFPCFLGVN has a protein stability index of 0.701 ± 0.012. For LLTAARAQLFAV, the protein stability index was 0.7 ± 0.022. For LLVSVVFVSRFF, the protein stability index was 0.514 ± 0.0092. For LLWALGLVLVEG, the protein stability index was 0.2919 ± 0.0014. For LNLACCWFVRCR, the protein stability index was 0.4215 ± 0.00083. LNSSVLRLRFFV showed a protein stability index of 0.756 ± 0.04. In the case of LPLCGLLLFLFF, the protein stability index is reported as 0.5302 ± 0.0025. Sequence LPLQPPPPVCLP has a protein stability index of 0.7199 ± 0.0036. LPPFGLFLFVFI showed a protein stability index of 0.517 ± 0.0074. LPPSTFLLHFLL showed a protein stability index of 0.744 ± 0.0099. LPTGLKTFLIAF showed a protein stability index of 0.541 ± 0.026. LPVPARPFPPSS was tested, and the protein stability index was 0.711 ± 0.014. With LQSYVSRLVRLS the protein stability index was 0.7356 ± 0.00043. In the case of LRFFLPFLLSLP, the protein stability index is reported as 0.6588 ± 0.0031. LRFSLLRVGWLC showed a protein stability index of 0.732 ± 0.022. LRGIVSVWILRA showed a protein stability index of 0.605 ± 0.0076. LRLLSLIPPLSC showed a protein stability index of 0.53 ± 0.016. Work on LRSPCALVLLLI yielded a protein stability index of 0.556 ± 0.0056. LSAVISLRIQLS was tested, and the protein stability index was 0.546 ± 0.0071. LSFFICSFFFVL was tested, and the protein stability index was 0.5798 ± 0.0013. Work on LSFLSLIFSICY yielded a protein stability index of 0.526 ± 0.066. For LSGDIPWSFVPV, the protein stability index was 0.787 ± 0.02. LSIGCRCLWGWF gave a protein stability index of 0.762 ± 0.022. With LSLCPVHRLLVL the protein stability index was 0.624 ± 0.007. LSLSPRLPRLVA showed a protein stability index of 0.663 ± 0.0015. Work on LSRFGSTCPSGL yielded a protein stability index of 0.765 ± 0.032. LSRHLILFIVIR showed a protein stability index of 0.2805 ± 0.0024. In the case of LSVYFSLSLCVS, the protein stability index is reported as 0.462 ± 0.011. In the case of LTCTSTPMACRV, the protein stability index is reported as 0.596 ± 0.011. For LVCLPVGFFLMW, the protein stability index was 0.634 ± 0.0072. Work on LVCLVFVRSSLV yielded a protein stability index of 0.529 ± 0.0096.
